Experimental data reported in publication doi:10.1101/2021.08.20.457142.

B1: MKK7 D-site peptide (second D-site) / JNK1 alpha1 (MAPK8 isoform 1) L198A, full length (parent complex)
chain 1: SQPQRPRPTLQLPLANEAFEQP
chain 2: MSRSKRDNNFYSVEIGDSTFTVLKRYQNLKPIGSGAQGIVCAAYDAILERNVAIKKLSRPFQNQTHAKRAYRELVLMKCVNHKNIIGLLNVFTPQKSLEEFQDVYIVMELMDANLCQVIQMELDHERMSYLLYQMLCGIKHLHSAGIIHRDLKPSNIVVKSDCTLKILDFGLARTAGTSFMMTPYVVTRYYRAPEVIAGMGYKENVDLWSVGCIMGEMVCHKILFPGRDYIDQWNKVIEQLGTPCPEFMKKLQPTVRTYVENRPKYAGYSFEKLFPDVLFPADSEHNKLKASQARDLLSKMLVIDASKRISVDEALQHPYINVWYDPSEAEAPPPKIPDKQLDEREHTIEEWKELIYKEVMDLEERTKNGVIRGQPSPLAQVQQ

Variants of: B1

Variant | screen value
chain 1 P3K | 1.42 Z-score of the enrichment rate within one screen of 711 sequences
chain 1 R5A, chain 1 N16A | 0.479 Z-score of the enrichment rate within one screen of 711 sequences
chain 1 P3A, chain 1 R7A | 0.212 Z-score of the enrichment rate within one screen of 711 sequences
chain 1 L14S | 0.942 Z-score of the enrichment rate within one screen of 711 sequences
chain 1 R7A, chain 1 P13A | 0.166 Z-score of the enrichment rate within one screen of 711 sequences
chain 1 P3E | 1.21 Z-score of the enrichment rate within one screen of 711 sequences
chain 1 Q11A, chain 1 N16A | 1.16 Z-score of the enrichment rate within one screen of 711 sequences
chain 1 P13W | 1.26 Z-score of the enrichment rate within one screen of 711 sequences
chain 1 P3A | 1.42 Z-score of the enrichment rate within one screen of 711 sequences
chain 1 L14V | 0.826 Z-score of the enrichment rate within one screen of 711 sequences
chain 1 P8H | 0.889 Z-score of the enrichment rate within one screen of 711 sequences
chain 1 P6W | 1.02 Z-score of the enrichment rate within one screen of 711 sequences
chain 1 T9D | 0.933 Z-score of the enrichment rate within one screen of 711 sequences
chain 1 Q11L | 1.67 Z-score of the enrichment rate within one screen of 711 sequences
chain 1 P13A | 1.14 Z-score of the enrichment rate within one screen of 711 sequences
chain 1 R5Q | 1.01 Z-score of the enrichment rate within one screen of 711 sequences
chain 1 P6E | 1.2 Z-score of the enrichment rate within one screen of 711 sequences
chain 1 R7T | 0.638 Z-score of the enrichment rate within one screen of 711 sequences
chain 1 P3S, chain 1 Q4K | 1.43 Z-score of the enrichment rate within one screen of 711 sequences
chain 1 P13I | 0.957 Z-score of the enrichment rate within one screen of 711 sequences
chain 1 L10W | -0.417 Z-score of the enrichment rate within one screen of 711 sequences
chain 1 P6R | 1.25 Z-score of the enrichment rate within one screen of 711 sequences
chain 1 T9A, chain 1 L14A | 0.13 Z-score of the enrichment rate within one screen of 711 sequences
chain 1 Q11A, chain 1 L12A | -0.605 Z-score of the enrichment rate within one screen of 711 sequences
chain 1 P3Y | 1.41 Z-score of the enrichment rate within one screen of 711 sequences

Variant | screen value
chain 1 L14A, chain 1 N16A | 0.658 Z-score of the enrichment rate within one screen of 711 sequences
chain 1 P6A, chain 1 N16A | 1.19 Z-score of the enrichment rate within one screen of 711 sequences
chain 1 T9V | 1.12 Z-score of the enrichment rate within one screen of 711 sequences
chain 1 P8R | 0.631 Z-score of the enrichment rate within one screen of 711 sequences
chain 1 L10A, chain 1 L12A | -0.511 Z-score of the enrichment rate within one screen of 711 sequences
chain 1 R5G | 0.242 Z-score of the enrichment rate within one screen of 711 sequences
chain 1 A15M | 1.57 Z-score of the enrichment rate within one screen of 711 sequences
chain 1 L10H | -0.321 Z-score of the enrichment rate within one screen of 711 sequences
chain 1 L12F | 0.226 Z-score of the enrichment rate within one screen of 711 sequences
chain 1 P6A, chain 1 P8A | 0.889 Z-score of the enrichment rate within one screen of 711 sequences
chain 1 P6S | 0.764 Z-score of the enrichment rate within one screen of 711 sequences
chain 1 Q4A, chain 1 P6A | 1.09 Z-score of the enrichment rate within one screen of 711 sequences
chain 1 L10D | -0.874 Z-score of the enrichment rate within one screen of 711 sequences
chain 1 Q11K | 1.58 Z-score of the enrichment rate within one screen of 711 sequences
chain 1 P6A, chain 1 Q11A | 1.17 Z-score of the enrichment rate within one screen of 711 sequences
chain 1 A15Y | 1.64 Z-score of the enrichment rate within one screen of 711 sequences
chain 1 T9A, chain 1 N16A | 0.774 Z-score of the enrichment rate within one screen of 711 sequences
chain 1 L14W | 1.36 Z-score of the enrichment rate within one screen of 711 sequences
chain 1 Q4A | 1.48 Z-score of the enrichment rate within one screen of 711 sequences
chain 1 R5T | 1.01 Z-score of the enrichment rate within one screen of 711 sequences
chain 1 Q4A, chain 1 T9A | 1.32 Z-score of the enrichment rate within one screen of 711 sequences
chain 1 P3C | 1.42 Z-score of the enrichment rate within one screen of 711 sequences
chain 1 N16F | 1.8 Z-score of the enrichment rate within one screen of 711 sequences
chain 1 P3L | 1.07 Z-score of the enrichment rate within one screen of 711 sequences
chain 1 L14G | 0.653 Z-score of the enrichment rate within one screen of 711 sequences

Variant | screen value
chain 1 Q11A, chain 1 L14A | 0.716 Z-score of the enrichment rate within one screen of 711 sequences
chain 1 R5N | 0.604 Z-score of the enrichment rate within one screen of 711 sequences
chain 1 A15P | 1.61 Z-score of the enrichment rate within one screen of 711 sequences
chain 1 T9I | 1.93 Z-score of the enrichment rate within one screen of 711 sequences
chain 1 L12T | -0.304 Z-score of the enrichment rate within one screen of 711 sequences
chain 1 P8Y | 0.574 Z-score of the enrichment rate within one screen of 711 sequences
chain 1 L14E | 0.365 Z-score of the enrichment rate within one screen of 711 sequences
chain 1 L12R | -0.521 Z-score of the enrichment rate within one screen of 711 sequences
chain 1 P6A, chain 1 T9A | 1.16 Z-score of the enrichment rate within one screen of 711 sequences
chain 1 P3T | 1.7 Z-score of the enrichment rate within one screen of 711 sequences
chain 1 Q4A, chain 1 Q11A | 1.43 Z-score of the enrichment rate within one screen of 711 sequences
chain 1 R7C | 0.232 Z-score of the enrichment rate within one screen of 711 sequences
chain 1 L10Q | -0.301 Z-score of the enrichment rate within one screen of 711 sequences
chain 1 N16I | 1.55 Z-score of the enrichment rate within one screen of 711 sequences
chain 1 P13Y | 1.41 Z-score of the enrichment rate within one screen of 711 sequences
chain 1 L14C | 1.27 Z-score of the enrichment rate within one screen of 711 sequences
chain 1 R7Y | 0.245 Z-score of the enrichment rate within one screen of 711 sequences
chain 1 L12A, chain 1 N16A | -0.599 Z-score of the enrichment rate within one screen of 711 sequences
chain 1 P8G | 0.304 Z-score of the enrichment rate within one screen of 711 sequences
chain 1 P8A, chain 1 N16A | 0.523 Z-score of the enrichment rate within one screen of 711 sequences
chain 1 T9S | 1.4 Z-score of the enrichment rate within one screen of 711 sequences
chain 1 P13A, chain 1 L14A | 0.556 Z-score of the enrichment rate within one screen of 711 sequences
chain 1 T9A | 0.998 Z-score of the enrichment rate within one screen of 711 sequences
chain 1 R5K | 1.36 Z-score of the enrichment rate within one screen of 711 sequences
chain 1 Q4T | 1.45 Z-score of the enrichment rate within one screen of 711 sequences

Variant | screen value
chain 1 A15G | 1.63 Z-score of the enrichment rate within one screen of 711 sequences
chain 1 Q4M | 1.12 Z-score of the enrichment rate within one screen of 711 sequences
chain 1 Q4R | 2 Z-score of the enrichment rate within one screen of 711 sequences
chain 1 Q4W | 1.2 Z-score of the enrichment rate within one screen of 711 sequences
chain 1 A15R | 1.69 Z-score of the enrichment rate within one screen of 711 sequences
chain 1 T9G | 0.628 Z-score of the enrichment rate within one screen of 711 sequences
chain 1 L12Y | -0.861 Z-score of the enrichment rate within one screen of 711 sequences
chain 1 P3H | 1.27 Z-score of the enrichment rate within one screen of 711 sequences
chain 1 L14M | 0.805 Z-score of the enrichment rate within one screen of 711 sequences
chain 1 L12S | -0.194 Z-score of the enrichment rate within one screen of 711 sequences
chain 1 L10I | 0.256 Z-score of the enrichment rate within one screen of 711 sequences
chain 1 Q11D | 1.71 Z-score of the enrichment rate within one screen of 711 sequences
chain 1 P3A, chain 1 L14A | 0.559 Z-score of the enrichment rate within one screen of 711 sequences
chain 1 Q4A, chain 1 L12A | -0.309 Z-score of the enrichment rate within one screen of 711 sequences
chain 1 R5C | 0.699 Z-score of the enrichment rate within one screen of 711 sequences
chain 1 P3G | 1.4 Z-score of the enrichment rate within one screen of 711 sequences
chain 1 Q4G | 1.26 Z-score of the enrichment rate within one screen of 711 sequences
chain 1 P13R | 1.24 Z-score of the enrichment rate within one screen of 711 sequences
chain 1 L10F | 0.606 Z-score of the enrichment rate within one screen of 711 sequences
chain 1 T9R | 1.59 Z-score of the enrichment rate within one screen of 711 sequences
chain 1 Q11R | 1.59 Z-score of the enrichment rate within one screen of 711 sequences
chain 1 L10E | -0.301 Z-score of the enrichment rate within one screen of 711 sequences
chain 1 R7A, chain 1 T9A | 0.112 Z-score of the enrichment rate within one screen of 711 sequences
chain 1 L10A, chain 1 N16A | -0.696 Z-score of the enrichment rate within one screen of 711 sequences
chain 1 P13T | 1.03 Z-score of the enrichment rate within one screen of 711 sequences

Variant | screen value
chain 1 L10Y | -0.115 Z-score of the enrichment rate within one screen of 711 sequences
chain 1 Q4S | 2.02 Z-score of the enrichment rate within one screen of 711 sequences
chain 1 N16D | 1.03 Z-score of the enrichment rate within one screen of 711 sequences
chain 1 P8A, chain 1 L12A | -0.717 Z-score of the enrichment rate within one screen of 711 sequences
chain 1 Q4E | 1.4 Z-score of the enrichment rate within one screen of 711 sequences
chain 1 P6I | 1.35 Z-score of the enrichment rate within one screen of 711 sequences
chain 1 P6G | 0.655 Z-score of the enrichment rate within one screen of 711 sequences
chain 1 R7A, chain 1 Q11A | 0.044 Z-score of the enrichment rate within one screen of 711 sequences
chain 1 A15L | 1.8 Z-score of the enrichment rate within one screen of 711 sequences
chain 1 L12W | 0.774 Z-score of the enrichment rate within one screen of 711 sequences
chain 1 R7S | -0.155 Z-score of the enrichment rate within one screen of 711 sequences
chain 1 T9P | 0.775 Z-score of the enrichment rate within one screen of 711 sequences
chain 1 N16K | 1.7 Z-score of the enrichment rate within one screen of 711 sequences
chain 1 Q11V | 1.38 Z-score of the enrichment rate within one screen of 711 sequences
chain 1 R7H | 0.435 Z-score of the enrichment rate within one screen of 711 sequences
chain 1 L12M | 0.011 Z-score of the enrichment rate within one screen of 711 sequences
chain 1 R5F | 1.12 Z-score of the enrichment rate within one screen of 711 sequences
chain 1 L12D | -0.686 Z-score of the enrichment rate within one screen of 711 sequences
chain 1 P8D | 0.613 Z-score of the enrichment rate within one screen of 711 sequences
chain 1 A15H | 1.57 Z-score of the enrichment rate within one screen of 711 sequences
chain 1 P8S | 0.564 Z-score of the enrichment rate within one screen of 711 sequences
chain 1 P3R | 1.66 Z-score of the enrichment rate within one screen of 711 sequences
chain 1 N16Y | 1.82 Z-score of the enrichment rate within one screen of 711 sequences
chain 1 R7D | -0.584 Z-score of the enrichment rate within one screen of 711 sequences
chain 1 R5M | 0.716 Z-score of the enrichment rate within one screen of 711 sequences

Variant | screen value
chain 1 Q4H | 1.59 Z-score of the enrichment rate within one screen of 711 sequences
chain 1 N16M | 1.27 Z-score of the enrichment rate within one screen of 711 sequences
chain 1 R7A, chain 1 L10A | -0.455 Z-score of the enrichment rate within one screen of 711 sequences
chain 1 L12H | -0.33 Z-score of the enrichment rate within one screen of 711 sequences
chain 1 R5H | 0.688 Z-score of the enrichment rate within one screen of 711 sequences
chain 1 P3A, chain 1 Q4A | 1.61 Z-score of the enrichment rate within one screen of 711 sequences
chain 1 Q11M | 1.43 Z-score of the enrichment rate within one screen of 711 sequences
chain 1 Q4A, chain 1 L14A | 0.562 Z-score of the enrichment rate within one screen of 711 sequences
chain 1 N16R | 1.4 Z-score of the enrichment rate within one screen of 711 sequences
chain 1 P13F | 1.62 Z-score of the enrichment rate within one screen of 711 sequences
chain 1 P8T | 0.655 Z-score of the enrichment rate within one screen of 711 sequences
chain 1 P13E | 1.34 Z-score of the enrichment rate within one screen of 711 sequences
chain 1 Q4N | 1.28 Z-score of the enrichment rate within one screen of 711 sequences
chain 1 L12K | -0.431 Z-score of the enrichment rate within one screen of 711 sequences
chain 1 P3A, chain 1 P13A | 1.51 Z-score of the enrichment rate within one screen of 711 sequences
chain 1 T9K | 1.65 Z-score of the enrichment rate within one screen of 711 sequences
chain 1 L14N | 0.512 Z-score of the enrichment rate within one screen of 711 sequences
chain 1 L10K | -0.134 Z-score of the enrichment rate within one screen of 711 sequences
chain 1 L14Q | 0.637 Z-score of the enrichment rate within one screen of 711 sequences
chain 1 R7W | 0.391 Z-score of the enrichment rate within one screen of 711 sequences
chain 1 L10M | 1.08 Z-score of the enrichment rate within one screen of 711 sequences
chain 1 P3A, chain 1 L10A | -0.251 Z-score of the enrichment rate within one screen of 711 sequences
chain 1 T9N | 1.85 Z-score of the enrichment rate within one screen of 711 sequences
chain 1 P6D | 0.975 Z-score of the enrichment rate within one screen of 711 sequences
chain 1 T9A, chain 1 Q11A | 1.19 Z-score of the enrichment rate within one screen of 711 sequences
